We go through 2 substances from patent US20170218072A1.

As a reminder, the Kd is the concentration at which binding is half-saturated. Lower therefore signals a tighter complex.

Test [1] addresses HER2ex. (UniProt P04626). Nature of the test: SPR (Biacore X100); single cycle method, 0.05% Tween20-PBS, immobilized full-Ab. In general terms: SPR reads the build-up and loss of mass on a sensor chip optically.
In test [2] the target is HER2ex. (UniProt P04626). Nature of the test: SPR (Biacore X100); multi-cycle method, 0.005% Tween20-PBS. The note with it: scFv.
Test [3] deals with HER2ex. (UniProt P04626). Nature of the test: SPR (Biacore X100); multi-cycle method, 0.05% Tween20-PBS. The settings on record: scFv.

For Trastuzumab full-body Ab, in test [1], the Kd worked out at 3.56 nM.
For Trastuzumab scFv, the Kd in test [2] amounted to 0.256 nM; in test [3] it was 0.0947 nM.
